Assay: label from the status in PepcDB records

Row | Sequence | protein production
1 | MYPKQFLKFGETSLFQETVLRCLEVSDISEVFVVTNEAQKFFVIGQIKEAGYSIPPENILIEPEGKNTLPAIFFGMKEIEKKFGDSIVGVFSSDHVLDRAAMATISSAENLASDYLVTFGVVPTFPHTGYGYIKASEACSPGYRVSEFREKPDFETAKKYIEEGCLWNSGMFLFETRLFFEEARKHAPSVYGCFEKEGDINQIYECVDNISIDYGIMEKSDKVAVVRLDHKWSDLGNFAAIYDELEKDSVGNVIHDCDPMLLNSDGNLVYSRCGKIVSLIDVKDMVVVDTSDALLICPKSSSQKVKEIVSELKGRKDERAFIGQTVYRPWGSYTLLDASPGHKIKNITVLSDHKLSLQLHYHRSEHWVVVKGMACVEVDGKQFFLGPGESTFIRAGQKHRLSNPGKLPLEIIEVQLGELVDEEDIVRFDDVYGRRLEHHHHHH | not failed
2 | MDTEMLIDKYQLNDSEAAVLRFMDKNRDCLKSLGIREVAKASYVSTTAIINMAKKIGYSGYSELVFAYGNKHSSISFPENFSNEEKDEFIRLLSRYREKRIMVLGSGFSQNIANHFSEMLNLYGFRATANSHLEFLRENVEKDVLIFIVSNSGDTLRLAELVKLAKNHHIDLIAFVGEKKSKIGQLATLTISTETYNPQVVSEYQPNLFFGTALNQFELLLSEALKSIFI | not failed
3 | MENLYKELGDQSLHKDFCQTVASTFSCSVNRNGKSSITWKQVQIWFQEKLKHQSQPKSKTLPSPPLQIHDLSNPSSYASNASNATFVGNSTFVQTRKGKASDLADLAFEAKSARDYAWYDVSSFLTYRVLRTGELEVRVRFSGFDNRHDEWVNVKTSVRERSIPVEPSECGRVNVGDLLLCFQEREDQALYCDGHVLNIKRGIHDHARCNCVFLVRYELDNTEESLGLERICRRPEE | failed
4 | MDFAYSPKVQELRERVSAFMEAHVYPAEAVFERQVAEGDRWQPTAIMEELKAKAKAEGLWNLFLPESEYGAGLANHEYAPLAEIMGRSLIGPEPFNCAAPDTGNMEVLVRYGSEEQKRTWLEPLLSGEIRSAFAMTEPGVASSDATNMEARAERQGDDWVINGRKWWTSGACDPRCKILIFMGLTNPDAPRHQQHSMILVPVDTPGVKILRPLPVFGYDDAPHGHAEVLFENVRVPYENVILGEGRGFEIAQGRLGPGRIHHCMRSIGMAERALELMCKRAVSRTAFGKPLARLGGNIDHIADSRMEINMARLLTLQAAYMMDTVGNKIAQSEIAQIKVVAPNVALKVIDRAIQMHGGAGVSNDFPLAYWYAMQRTLRLADGPDEVHRAAIGKFELGKYVPREML | failed
5 | MSSPSEFPLSEAPQSARKGLLPIAMVLFSFTFFTGTMFAGGKLGMAFSFVDMLWVATLGNSLLALYAAALAFIASRSGLNTVLMGRFCFGEAGSRLSDFLLGFAELGWYAWGTATVAIVLVKLLGLADGFGMPLMVLFGLGFSITAIIGFKGLDLLSRVSVPLMFVLLLVSMYIATRDAGGFAGLAAVVPHETMTFSAAVTMVFGTFASGATQATNWTRLARSGRVAVIASGVAFLLGNGLMVVAGAWCAMVYQQADIVDVMMLQGLSFAAVVMLCLNLWTIQGPTIYNVSAAACHLLRSERRRTATLVAAGVGIVLAMGGMYEMLIPFLVLLGSIIPPVGGVIMADFWYRHRGKYPPLCTANLPRYNLTGLFAYAVGAVLAYASPWVAPLVGIAASAVCYIVILELGARRRAPGQAGVEP | failed
6 | MTPHPRLSIGLPVYNGEEYLAESLDALLGQTYENFELVISDNASTDGTRDICRRYAAQDSRIRYIRLPRNIGAAPNHNYVFTECRGELFKWASHDDLYARDLLRSCVAALDERPEVVLAHAGQAVIDGDGKVKVPYEYGLATDSPRAPERFRSLLFEPGGDDFYGVMRSAMLRRVKPHDSYHHADRTFVAEITLHGPFHQVPELLYFRRDHPTRAERANPSKRSRCVNLDPRRAGPLHPTPRLLAEYVWGFASAIGRAPLSSADRRACHRHLAAWLTSRVRPGVGERVEDRAPVDPDRLTVSVDDLVAGREGRQALEHHHHHH | failed
7 | MGGGNAQKSAMARAKNLEKAKAAGKGSQLEANKKAMSIQCKVCMQTFICTTSEVKCREHAEAKHPKADVVACFPHLKK | not failed
8 | MDHLKHLQQLQNIERIVLSGIVLANHKIEEVHSVLEPSDFYYPPNGLFFEIALKLHEEDCPIDENFIRQKMPKDKQIKEEDLVAIFAASPIDNIEAYVEEIKNASIKRKLFGLANTIREQALESAQKSSDILGAVEREVYALLNGSTIEGFRNIKEVLESAMDLITENQRKGSLEVTGIPTGFVQLDNYTSGFNKGSLVIIGARPSMGKTSLMMNMVLSALNDDRGVAVFSLEMSAEQLALRALSDLTSINMHDLESGRLDDDQWENLAKCFDHLSQKKLFFYDKSYVRIEQIRLQLRKLKSQHKELGIAFIDYLQLMSGSKATKERHEQIAEISRELKTLARELEIPIIALVQLNRSLENRDDKRPILSDIKDSGGIEQDADIVLFLYRGYIYQMRAEDNKIDKLKKEGKIEEAQELYLKVNEERRIHKQNGSIEEAEIIVAKNRNGATGTVYTRFNAPFTRYEDMPIDSHLEEGQETKVDYDIVTT | not failed
9 | MSEGSNVLVSIILVNYNGADILPDCLNSIDKFISKDNCEILLVDNASQDNSYELVAQDFPDVKIVRLPKNYGFGAGNNAGAKIAKGKFLLLLNTDTILTTNILPHLIDLMRENPDVGIIGTKLVFPDETFQISFAYTIGIKGEYKSRKLHEYAEDKSKLNSLEQEFNTIKEVDIVVGAALFIRADLFHSVGGFDEKFFIYFEDADLCRRVQNQGYKILYTPQVSLIHIRGHSMKKNANATVVEYRRSQLYYYKKHCPVWERIILRIYLFAKFLPEFLATRNPYSLEIIKLLFVIA | failed
10 | MYYKFGEIKNKIISFNGFEFKVSAMKKHDGISIQVKDMNNVPLKSFHVVDLSELYIAMDAMRDVINEWIEENTDERDRLINLVMRW | failed
11 | MPTCAPAMVTTLYETPEHACLMFSDLVDDHDDQSVQTNQFLVVDHGHGALIDPGGNMTYNALYLAMNQYFPPKQLDYVLASHADPDIVASAGRWLTSSNCNILISRVWERFLPHFCNVGKTDGRILPIPDTGMAIPIGQSHLLAVPAHFLHSEGNFQFYDPVSRILFSGDLGASMVHAEIAAAPVEDFDAHIPLMAPFHRRYMSGNRVCRLWAEMVRGLEIEWIVPQHGRAFHGPAMVRRFIDWVETLTCGIDLMTQETFRLPALPRVAAGAPLRTPQP | failed
12 | MAGGYGVRSPGPCVQCLARPMTTPFWPGRERCASLASRDAFAARLFKRQKMESFLVSTGIVALAEMGDKTQLLSLVLAARYRKPIPIILGILIATLVNHGFAGALGGWITGMVGVDLLRWILGLGFIAMAGWMLIPDKLDDAEEAKPVKGALGILGTTIIAFFFAEMGDKTQIATVALAARFHGEVIAVVAGTTFGMMLANAPAVLLGDRFANKMPIALVHKIAAAIFLVLGLLALFNVGG | failed
13 | MEYLFLRRKRTTATSERQKTLLFKAAERQWKEEFAGKETDIRKVDCNIYKGILYQLEIRQVFLDTSLSLKKLSALLETNQTYLSNVVNKYFGCNLKELVNTYRVEYAKELLCSRRCALTELPCSCGFASKSAFYSAFSRIVGVSPLSYQTQERRRHHLQAVNLEHHHHHH | failed
14 | MELSAIGEQVFAVESIRKKRVRKGKVEYLVKWKGWPPKYSTWEPEEHILDPRLVMAYEEKEERDRASGYRKRGPKPKRLLLQRLYSMDLRSSHKAKGKEKLCFSLTCPLGSGSPEGVVKAGAPELVDKGPLVPTLPFPLRKPRKAHKYLRLSRKKFPPRGPNLESHSHRRELFLQEPPAPDVLQAAGEWEPAAQPPEEEADADLAEGPPPWTPALPSSEVTVTDITANSITVTFREAQAAEGFFRDRSGKF | failed

Reference: a protein production outcome set (Wang et al. 2014)
